Experimental data as given in paper PMC10973363, “Insights into the modulation of bacterial NADase activity by phage proteins” (Nature Communications, 2024).

B1: defense-associated sirtuin 2 (DSR2), full-length wild type (enzyme, Bacillus subtilis 29R, UniProt P0DXN8 1-1005, looked up)
chain: MVKVDLESKRYGEKLKEVFLMLDNNVVECIKEITESSRNGKLVFFVGAGVSTLSDYPQWWRLVDKYHEELYGSPKKGNYSSDEYLRIPQIFYNVKGEMAFDGILKDFFQVDKPTNPIHDKILAMNPAHVITTNYDNLIDTACWKRGKYFSVISAEEDVANATSSRYLLKVHGDFRKGFKGENVVLKEDDYLNYDQNYPLISNLMKTIIATHTIVFIGYGLGDYNINMLLNWVRKLQKDSFHKPFFIRTDPSPIENETLIYYENKGLRIIDAASLIDSNEYDYLERYSAVMDLLIESQENKFITKDDEVIDYIYGKISPLFALQYIRKIDLKHVFEYDYHFEVNGTVVRHKNKGFGYMERFFELKESCDERSKLSKKQYERFNALFNFFEKNGVICMAKDAGTLNTSIEINSLAYHGKYDVMKKFIEEQSVSIEDDYKKAFFLACLGRWEESYDLYSNIILNSIDESNGCVYYLSQINRYRIYQSITQAVTQFNGLGLLTFGRHYKPFTDEFLARIEREMTNFNIDDLFNGMPFEFQKKYKILEFLSDNQFLYDDTVKLFELTNKVRSEMSEGSYSFGMSSDIVVLLRLYDNLRFLYENCLWSVSFHEFHQYIRNSMSLLIEKAEYERTRDIDELGFSFFGKKSGFFMEYYDFVNISRHFKIDDIKNLERSCSIDKIRFGEQEKIEEYLVGIAEEITKQFSANGMNVVFYTQFISEAKAALYFAKYVKLSEEGLGKIVKALLFYFPERDLDIGKRYVWLERLTKCNELPKSIISIIDDFLVLQAEKHIDQNYSEVSSNGLYSRDYGALIKHFEKNFISKRLSEITLCLTQDKQKQIDFLFKLLPLLSTNAKSHLLSFKSVENINDLMNGIRIGLIDEFTPEHEELIIEYLETRKVNYIVEKEKGIQTFSSNDYMSTFGIWYFLEEINNSKMEEFIGMDDQYDFFVDPENFDYKKFIPSWLKNYNDKLLGKIAGNKHMKHHVIEVLKERVKNSNDKRYLEILMNYFI
notes: DSR2 from Bacillus subtilis 29R, WP_029317421; Cloned into the 2CT-10 vector (Addgene plasmid #55209) with His-MBP tag and TEV site; DSR2-TTP was cloned into a pET-derived vector with an N-terminal His tag; also called WT DSR2; full-length DSR2; source: E. coli Rosetta (DE3), purified (Ni-NTA, TEV cleavage, anion exchange, gel filtration); not shown: His, N-terminal, cleaved; MBP, N-terminal, …
B2: tail tube protein (TTP) from phage SPR, His-tagged (natural protein)
chain: MKTVIQDTADVYFKRKSDGKLVFTAEAQTASFSQAISEEKLRGGIGNKPLYILKSEKEINLTVKNAFFDLEWLAMTQGETIQEETKVKVFDREHGLIVDDTNKVTLKGKPVSDVTFYNKKGLTYKIAVSTDGTYTIPTAFAAAKDKLTAVYQIEKVGRRLAIKASKFSERYEVEYRTIAYNPDTEEVYSDIYIQFPNVSPSGEFEMSLENGNALAPEIKFEALADTDTDEMAVVIEASRDENTAAPVEDTTGSTQSSDLGGTTE
notes: tail tube protein of phage SPR, WP_010328117; C-terminal portion aa 240-264 not built in the cryo-EM model of the tube; Cloned into a pET-derived vector with an N-terminal His tag; Alone it polymerises into a tube of hexameric rings (cryo-EM); also called His-tagged TTP; tagged TTP; source: E. coli Rosetta (DE3), purified (Ni-NTA, anion exchange, gel filtration); not shown: His, N-terminal, kept

Assays:
[1] = target: the molecule itself; test: native gel or EMSA; purified DSR2 at 1 mg/mL in gel-filtration buffer (25 mM Tris-HCl pH 7.5, 150 mM NaCl, 2 mM DTT) on a 5% native gel, 120 V, 40 min, 4 °C, Coomassie staining
[2] = target: B2; test: cryo-EM structure; protein complexes (co-expressed and co-purified) or TTP tube at 0.5 mg/ml on Quantifoil Au grids, Titan Krios 300 kV; conditions: both partners purified
[3] = target: T1, DSR anti-defense 1 (DSAD1), His-tagged (UniProt Q796A8 1-120); test: as above; conditions: both partners purified
T1 construct: phage-encoded DSAD1, WP_004399562; aa 1-9 not built in the cryo-EM model; Cloned into a pET-derived vector with an N-terminal His tag; also called anti-DSR2 protein; His-tagged DSAD1; source: E. coli Rosetta (DE3), purified (Ni-NTA, anion exchange, gel filtration); not shown: His, N-terminal, kept
T1 sequence: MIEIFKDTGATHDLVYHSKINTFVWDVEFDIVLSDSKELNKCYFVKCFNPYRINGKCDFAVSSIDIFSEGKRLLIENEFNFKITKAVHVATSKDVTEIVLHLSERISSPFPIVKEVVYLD

[4] = target: T2, DSR2 CTD-only protein (ΔSIR2, aa 304-1005) (Bacillus subtilis 29R, UniProt P0DXN8 304-1005); test: pull-down; N-terminal His-tagged TTP or DSAD1 on Ni-NTA agarose beads, excess untagged DSR2 variants added, 1 h at 4 °C, 25 mM Tris-HCl pH 7.5, 300 mM NaCl, washes with 10 mM imidazole, SDS-PAGE with Coomassie staining; conditions: both partners purified
T2 construct: DSR2 from Bacillus subtilis 29R, WP_029317421, C-terminal domain aa 304-1005; source: E. coli Rosetta (DE3), purified (Ni-NTA, TEV cleavage, anion exchange, gel filtration); not shown: His, N-terminal, cleaved; MBP, N-terminal, cleaved
T2 sequence (looked up): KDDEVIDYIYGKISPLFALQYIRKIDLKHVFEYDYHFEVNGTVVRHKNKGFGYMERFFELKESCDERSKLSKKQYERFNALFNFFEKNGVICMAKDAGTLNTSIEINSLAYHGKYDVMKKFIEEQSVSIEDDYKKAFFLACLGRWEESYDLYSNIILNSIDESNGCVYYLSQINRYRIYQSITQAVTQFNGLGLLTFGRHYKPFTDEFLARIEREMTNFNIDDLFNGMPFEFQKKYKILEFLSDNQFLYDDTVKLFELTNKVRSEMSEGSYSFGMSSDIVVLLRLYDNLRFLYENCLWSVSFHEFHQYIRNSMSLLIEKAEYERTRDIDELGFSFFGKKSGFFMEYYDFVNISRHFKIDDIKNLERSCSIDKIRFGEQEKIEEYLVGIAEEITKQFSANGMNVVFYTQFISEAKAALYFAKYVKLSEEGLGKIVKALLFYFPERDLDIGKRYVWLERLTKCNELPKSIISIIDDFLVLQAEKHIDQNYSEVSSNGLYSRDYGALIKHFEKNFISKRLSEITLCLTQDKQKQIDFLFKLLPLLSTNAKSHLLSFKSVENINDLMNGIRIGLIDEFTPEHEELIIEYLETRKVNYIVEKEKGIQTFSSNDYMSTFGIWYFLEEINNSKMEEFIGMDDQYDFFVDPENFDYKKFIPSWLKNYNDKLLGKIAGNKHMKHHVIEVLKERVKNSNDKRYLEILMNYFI

[5] = target: B1; test: as above; conditions: both partners purified
[6] = target: the molecule itself; test: cryo-EM structure; protein complexes (co-expressed and co-purified) or TTP tube at 0.5 mg/ml on Quantifoil Au grids, Titan Krios 300 kV

Binder	stoichiometry N [1]	stoichiometry N [2]	stoichiometry N [3]	binding result [4]	binding result [5]	stoichiometry N [6]
B1	4	4 TTP per DSR2 tetramer	1 DSAD1 per DSR2 dimer			
B2				binds	binds	6
